Source: the nanobody polyreactivity screen of Harvey et al. (2022)

Assay: yeast display, Sf9 membrane polyspecificity reagent, FACS + sequencing; frameworks hold sequencing errors
Procedure, shortened: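 Synthetic nanobody libraries on Saccharomyces cerevisiae BJ5465 were galactose-induced for 36–48 hours, stained 1 hour at 4 °C with 10% biotinylated, detergent-solubilized Sf9 membrane reagent and enriched on streptavidin microbeads. FACS then separated cells into low and high (top ~1%) gates by anti-HA (expression) and streptavidin (reagent binding) fluorescence. Genes were colony-PCR amplified, MiSeq 2 × 250 sequenced and CDR-length filtered. A clone's polyreactivity label is that of its gate of origin.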

Sequence	polyreactivity (PSR sort gate)
QVQLVDSAGGLVQAGGSLRLSCAASGLTFPPNAMGWYRQAPGKEREFVAVISSGGGSTYYADSVKGRFTISRDNAKNTVYLQMNSLKPEDTAVYYCATEYQDGDTEYYYWGQGTQVTVSS	low polyreactivity
QVQLVDSCGGLVQAGGSLSLSCAASGRTFTRYAMGWYRQAPGKERELVASITNGGGTYYADSVKGRFTISRDNAKNTVYLQMNSLKPEDTAVYYCAKAERVTSHIYYSWGQGTQVTVSS	low polyreactivity
QVQLVDSGAGLVQAGGSLRLSCPASGRIFAVNAMGWYRKAPGKERELVAAINGGGSTNYADSVKGRFTISRDNAKNTVYLQMNSLKPQDTAVYYCAADVGWRSQTRGYYWGQGTQVTVSS	high polyreactivity
QVQLVDSGGAIVQAGGSLRLSCAASGRTYHRNSKGWYRQAPGKERELVAAITGDGRTNYADSVKGRFTISRDNAKNTVFLPINSLKPEDTAVYYCAATFGFFYYHYDYWGQGTQVTVSS	low polyreactivity
QVQLVDSGGGIGQAGASLRLSCAASGRNFAVYAIGWYRQAPGKERELVAAITRNGGSTYADSVKGRFTISRDNAKNTVYFQMNSLKPDDTAVYYCNAVAYIYSYAYPPYWGREHLNYWGQGTQLTVSS	low polyreactivity
QVQLVDSGGGLFQAGGSHRLSFAASGSILRSNAMGWYRQAPGKERELVAVINGSGGRTYYADSVKGRFTISRDNAKNTVYLQMNSLKPEDTAVYYCNADPGGRYPRRGYAHEGDYWGQGTKVTVSS	low polyreactivity
QVQLVDSGGGLVHAGGSLRLSCAASGRTFFINTMGWYRQPPGKEREFVAAITWSAGRTYYADSVKGRITISRDNAKNTVYLQMISLKPEDTAVYYCAAALDGHTFPFYYWGQGTQVTVSS	low polyreactivity
QVQLVDSGGGLVHAGGSLSLSCAASGRIFSHYALGWYRQAPGKERELVAAISSRGGRTYYADSVKGRFTISRDNAKNTVYLQMNSLKPEDPAVYYCAAVIRSVYSYYEYDYWGQCTQVTVSS	high polyreactivity
QVQLVDSGGGLVQAGASLRLSCAASGIIFWSYTMGWYRQAPGKERELVAAINWSGTRTYYADSVKGRFTISRDNAKNTVYLQMNSLKTEDTAVYYCNADSRYRSFDYWGQGTQVTVSS	high polyreactivity
QVQLVDSGGGLVQAGASLRLSCAASGSTLSYYTMGWYRQAPGKERELVAAISWRGGSTYYADSVKGRFTISRDNAKNTVYLQMNSLKPEDTAVYYCATAIRGSPDSSLYYYWGQGTQVTLSS	high polyreactivity
QVQLVDSGGGLVQAGCSIRITCSATGITFVANTKGWYRQEPVKERELVDTITSSGGSTYYADSVKGRFTISRDNAKNSVYLQMNSLKPEDTAVFYCAASDLRYRGNYVYLPSEYWGQGSQVTVSS	low polyreactivity
QVQLVDSGGGLVQAGGILRLRFAASGYTFDKYAMGWYRQKPGKARELVAAITSLGGSKYYADSVKGRFTISRDHAKNTVYLQMNSLKPDVTAVYYCAAEYVAPVPRVHEEMYYWGQGTQVTVSS	high polyreactivity
QVQLVDSGGGLVQAGGILRLSCAASGLTFYDNAMGWYRQAPAKERELVAAISDSGGSTYYADSVKGRFTISRDNAKNTVFLQMNSLKPEDTAVYYCAAAGWQANWEYEYWGQGTQVTVSS	high polyreactivity
QVQLVDSGGGLVQAGGRLRLSCAASGFIYEPNAMGGYRQAPGKEMELVAAISSGGSTYADSVKGRFTISRDNAKNTVYLQMNSLKPEDTAVYYCAADSYYSVWGFYYWGQGTQVTVSS	low polyreactivity
QVQLVDSGGGLVQAGGRLRLSCAASGRTFYRNAMGWDSQAPGKERELVAAITSGGSTYYADSVKGRFTISRDTAKNTGYLQMNSLKPEDTAVYYCAALRHALRYDYWGQGTQVTVSS	low polyreactivity
QVQLVDSGGGLVQAGGRLRLSCAASGYILTHYAMGWYRQAPGKERELVAAITRVGNTNYADSVKGRFTISRDNAKNTVYLQMNSLKPEDTAVYSCAADGVASLFGDPPTEFDYWGQGTQVTVSS	low polyreactivity
QVQLVDSGGGLVQAGGSLRISCAASGLIFSKNVMGWYRQAPGKEREFVAAISQRGGSTYYADSVKGRFTISRDIAKNTVYLQMNSLKPEDTAVYYCAADNTVSHEDYWGQGTQVTVSS	high polyreactivity
QVQLVDSGGGLVQAGGSLRISCAASGNILIGNVMGWYRQAPGKERELVAAITSGGDTYYADSVKGRITISRDNAKNTVYLQMNSLKPEDTAVYYCAADRPGQPKYEYWGQGTQVTVSS	low polyreactivity
QVQLVDSGGGLVQAGGSLRISCAASGYIFSANAMGWYRKAPGKEREFVAAISSTGGSTYYADSVKGRFTISRDTAKNTVYLQMNSLKTEDTSVYYFEAYIRRYFHYDYWGQGTQVTVSS	high polyreactivity
QVQLVDSGGGLVQAGGSLRLSCAASGCTFGSYAMGWYRQAPGKERELVAGITGSGGRTYYADSVKGRFTISRDNAKNTVYLQMNSLKPEDTAVYYCATTGRRWYYPYHYWGQGTHVTVSS	high polyreactivity
QVQLVDSGGGLVQAGGSLRLSCAASGFIFDINAMGWYRQAPGKERELVAAISYSGGSTYYADSVKGRFTISRDNAKNTVYLQMNSLKPEDTAVYYCAADCGPDSDEGDYWGQGTQVTVSS	low polyreactivity
